Reference: patent publication US20150344580A1 (MSM PROTEIN TECHNOLOGIES, published 2015)

T1: human chemokine receptor CCR7 (human, UniProt P32248 25-378)
T1 construct: On CHO, BHK, R1610 and Chem-1 transfectants and, natively, on human PBMC and the leukemia lines JVM-13 and CLL-AAT; also called human CCR7; hCCR7
T1 sequence: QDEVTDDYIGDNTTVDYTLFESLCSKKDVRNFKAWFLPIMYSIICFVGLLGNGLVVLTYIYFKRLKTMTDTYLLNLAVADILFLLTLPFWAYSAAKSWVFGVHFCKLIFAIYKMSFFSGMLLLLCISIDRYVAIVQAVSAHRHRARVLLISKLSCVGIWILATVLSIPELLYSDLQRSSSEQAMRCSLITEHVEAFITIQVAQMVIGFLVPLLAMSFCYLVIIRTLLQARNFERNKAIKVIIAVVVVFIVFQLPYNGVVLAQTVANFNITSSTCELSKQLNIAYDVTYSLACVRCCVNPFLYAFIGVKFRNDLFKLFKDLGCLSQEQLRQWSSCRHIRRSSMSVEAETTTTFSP

B1: MSM-R707BI (fully human anti-human CCR7 antibody, IgG1) (antibody, V domains shown)
VH: EVQLLESGGGLVQPGGSLRLSCAASGFTFSNYAIHWVRQAPGKGLEWVSAITPRGGYTYYADSVKGRFTISRDNSKNTLYLQMNSLRAEDTAVYYCARGLTISYTPGFDYWGQGTLVTVSS
VL: not shown
notes: IgG1 format; HC CDR3 derivative of MSM-R707; also called MSM-R7707BI; R707B1
B2: MSM R735 in IgG4 format (antibody)
heavy: EVQLLESGGGLVQPGGSLRLSCAASGFTFSNYNMHWVRQAPGKGLEWVSGIGPRRGRTYYADSVKGRFTISRDNSKNTLYLQMNSLRAEDTAVYYCARSYAYQYRGLDYWGQGTLVTVSSASTKGPSVFPLAPCSRSTSESTAALGCLVKDYFPEPVTVSWNSGALTSGVHTFPAVLQSSGLYSLSSVVTVPSSSLGTKTYTCNVDHKPSNTKVDKRVESKYGPPCPSCPAPEFLGGPSVFLFPPKPKDTLMISRTPEVTCVVVDVSQEDPEVQFNWYVDGVEVHNAKTKPREEQFNSTYRVVSVLTVLHQDWLNGKEYKCKVSNKGLPSSIEKTISKAKGQPREPQVYTLPPSQEEMTKNQVSLTCLVKGFYPSDIAVEWESNGQPENNYKTTPPVLDSDGSFFLYSRLTVDKSRWQEGNVFSCSVMHEALHNHYTQKSLSLSPGK
light: EIVLTQSPGTLSLSPGERATLSCRASQSVSSSYLAWYQQKPGQAPRLLIYGASSRATGIPDRFSGSGSGTDFTLTISRLEPEDFAVYYCQQGSPVTFGQGTKVEIKRTVAAPSVFIFPPSDEQLKSGTASVVCLLNNFYPREAKVQWKVDNALQSGNSQESVTEQDSKDSTYSLSSTLTLSKADYEKHKVYACEVTHQGLSSPVTKSFNRGEC
notes: also called IgG4 formatted MSM R735

Experiments:
[1] = molecular target: T1, human chemokine receptor CCR7; experiment: flow cytometry titration, CHO cells expressing human CCR7
[2] = molecular target: T1, human chemokine receptor CCR7; experiment: flow cytometry titration, CHO-human CCR7 cells, anti-human Fc-PE
Procedure: The affinity of IgG1 antibodies to human CCR7 was evaluated by measuring mean fluorescence value (MFI) of cells expressing CCR7 in the presence of varying concentration of antibody in question, upon staining of bound to the cells antibodies with a commercial anti-human antibody-PE conjugate. The data of such experiments are depicted in FIGS. 9, 10, and 11. In these experiments binding of some antibodies to parental cells or cells expressing mouse CCR7 was also quantitatively characterized by obtaining EC₅₀ value (a concentration of IgG1 at which half-maximum MFI is achieved) for each curve using the SoftMaxPro5 program.

[3] = molecular target: T1, human chemokine receptor CCR7; experiment: cell-based or functional assay
[4] = molecular target: T1, human chemokine receptor CCR7; experiment: flow cytometry titration on CCR7 over-expressing cells (direct binding, printed as IC50)

Row | Binder | EC50 [1] | EC50 [2] | IC50 of inhibition of CCL19-induced Ca-flux in cells expressing human CCR7 [3] | IC50 [4]
1 | B1 | 6.7 nM | 5.5 nM | – | –
2 | B2 | – | – | 128 nM | 2.5 to 5.3 nM
